This assay concerns the target T1, Nod2 (wild-type, HA-tagged) (human, UniProt Q9HC29 1-1040).
T1 construct: Expressed in HEK293T cells and tested in cell extracts by co-immunoprecipitation; also called Nod2a; wt Nod2; not shown: HA tag; the plasmid is named both pcDNA3-Nod2-HA and pcDNA3-HA-Nod2, so the end that carries the ta
Put plainly: co-immunoprecipitation, HEK293T extracts. From the text: Proteins co-immunoprecipitated with anti-HA antibody were detected with anti-Flag antibody. […] Proteins in total lysate were detected by anti-Flag and anti-HA monoclonal antibody, respectively. […]

T1 sequence (Q9HC29 whole entry): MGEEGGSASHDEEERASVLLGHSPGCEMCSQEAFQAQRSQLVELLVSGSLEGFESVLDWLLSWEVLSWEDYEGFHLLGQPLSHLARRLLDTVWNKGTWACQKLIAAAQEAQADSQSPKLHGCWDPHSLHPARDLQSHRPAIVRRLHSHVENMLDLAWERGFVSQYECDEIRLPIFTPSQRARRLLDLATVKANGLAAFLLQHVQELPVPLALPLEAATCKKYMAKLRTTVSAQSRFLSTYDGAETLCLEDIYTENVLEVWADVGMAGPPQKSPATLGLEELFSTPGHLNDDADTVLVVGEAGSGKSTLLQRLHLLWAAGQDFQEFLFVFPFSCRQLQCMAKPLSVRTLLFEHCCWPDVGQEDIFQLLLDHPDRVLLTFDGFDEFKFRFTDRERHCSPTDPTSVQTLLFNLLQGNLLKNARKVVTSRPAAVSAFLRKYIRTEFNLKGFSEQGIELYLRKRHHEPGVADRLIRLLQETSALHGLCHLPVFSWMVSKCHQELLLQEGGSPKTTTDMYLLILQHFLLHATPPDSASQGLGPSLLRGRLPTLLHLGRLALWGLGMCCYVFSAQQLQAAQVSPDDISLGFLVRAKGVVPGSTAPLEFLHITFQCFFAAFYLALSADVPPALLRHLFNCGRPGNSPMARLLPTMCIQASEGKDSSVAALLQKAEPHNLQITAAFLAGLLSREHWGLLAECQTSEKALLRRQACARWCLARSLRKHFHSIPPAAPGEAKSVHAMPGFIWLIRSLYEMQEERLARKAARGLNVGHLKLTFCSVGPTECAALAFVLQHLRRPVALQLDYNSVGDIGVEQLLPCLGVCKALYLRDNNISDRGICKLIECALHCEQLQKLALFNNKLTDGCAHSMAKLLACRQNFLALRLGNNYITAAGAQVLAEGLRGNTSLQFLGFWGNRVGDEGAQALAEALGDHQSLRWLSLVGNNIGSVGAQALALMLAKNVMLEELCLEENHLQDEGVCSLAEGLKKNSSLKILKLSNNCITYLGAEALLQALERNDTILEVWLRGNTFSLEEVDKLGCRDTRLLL

B1: Ced-4 (other, UniProt P30429 1-549, looked up)
chain: MLCEIECRALSTAHTRLIHDFEPRDALTYLEGKNIFTEDHSELISKMSTRLERIANFLRIYRRQASELGPLIDFFNYNNQSHLADFLEDYIDFAINEPDLLRPVVIAPQFSRQMLDRKLLLGNVPKQMTCYIREYHVDRVIKKLDEMCDLDSFFLFLHGRAGSGKSVIASQALSKSDQLIGINYDSIVWLKDSGTAPKSTFDLFTDILLMLKSEDDLLNFPSVEHVTSVVLKRMICNALIDRPNTLFVFDDVVQEETIRWAQELRLRCLVTTRDVEISNAASQTCEFIEVTSLEIDECYDFLEAYGMPMPVGEKEEDVLNKTIELSSGNPATLMMFFKSCEPKTFEKMAQLNNKLESRGLVGVECITPYSYKSLAMALQRCVEVLSDEDRSALAFAVVMPPGVDIPVKLWSCVIPVDICSNEEEQLDDEVADRLKRLSKRGALLSGKRMPVLTFKIDHIIHMFLKHVVDAQTIANGISILEQRLLEIGNNNVSVPERHIPSHFQKFRRSSASEMYPKTTEETVIRPEDFPKFMQLHQKFYDSLKNFACC
notes: Construct and tag not described
For the molecule B1, the binding result is on record as “no binding”.

B2: RIP (enzyme, UniProt Q13546 1-671, looked up)
chain: MQPDMSLNVIKMKSSDFLESAELDSGGFGKVSLCFHRTQGLMIMKTVYKGPNCIEHNEALLEEAKMMNRLRHSRVVKLLGVIIEEGKYSLVMEYMEKGNLMHVLKAEMSTPLSVKGRIILEIIEGMCYLHGKGVIHKDLKPENILVDNDFHIKIADLGLASFKMWSKLNNEEHNELREVDGTAKKNGGTLYYMAPEHLNDVNAKPTEKSDVYSFAVVLWAIFANKEPYENAICEQQLIMCIKSGNRPDVDDITEYCPREIISLMKLCWEANPEARPTFPGIEEKFRPFYLSQLEESVEEDVKSLKKEYSNENAVVKRMQSLQLDCVAVPSSRSNSATEQPGSLHSSQGLGMGPVEESWFAPSLEHPQEENEPSLQSKLQDEANYHLYGSRMDRQTKQQPRQNVAYNREEERRRRVSHDPFAQQRPYENFQNTEGKGTAYSSAASHGNAVHQPSGLTSQPQVLYQNNGLYSSHGFGTRPLDPGTAGPRVWYRPIPSHMPSLHNIPVPETNYLGNTPTMPFSSLPPTDESIKYTIYNSTGIQIGAYNYMEIGGTSSSLLDSTNTNFKEEPAAKYQAIFDNTTSLTDKHLDPIRENLGKHWKNCARKLGFTQSQIDEIDHDYERDGLKEKVYQMLQKWVMREGIKGATVGKLAQALHQCSRIDLLSSLIYVSQN
notes: as for B1
Consider B2, for which the binding result was “no binding”.

B3: RICKΔCARD (residues 1-374), Flag-tagged (other, not shown: small tags and cut ends)
chain: MNGEAICSALPTIPYHKLADLRYLSRGASGTVSSARHADWRVQVAVKHLHIHTPLLDSERKDVLREAEILHKARFSYILPILGICNEPEFLGIVTEYMPNGSLNELLHRKTEYPDVAWPLRFRILHEIALGVNYLHNMTPPLLHHDLKTQNILLDNEFHVKIADFGLSKWRMMSLSQSRSSKSAPEGGTIIYMPPENYEPGQKSRASIKHDIYSYAVITWEVLSRKQPFEDVTNPLQIMYSVSQGHRPVINEESLPYDIPHRARMISLIESGWAQNPDERPSFLKCLIELEPVLRTFEEITFLEAVIQLKKTKLQSVSSAIHLCDKKKMELSLNIPVNHGPQEESCGSSQLHENSGSPETSRSLPAPQDNDFLS
notes: also called pcDNA3-Flag-RICK(1-374)
Consider B3, for which the binding result is “no binding”.

B4: caspase-1 (enzyme, UniProt P29466 1-404, looked up)
chain: MADKVLKEKRKLFIRSMGEGTINGLLDELLQTRVLNKEEMEKVKRENATVMDKTRALIDSVIPKGAQACQICITYICEEDSYLAGTLGLSADQTSGNYLNMQDSQGVLSSFPAPQAVQDNPAMPTSSGSEGNVKLCSLEEAQRIWKQKSAEIYPIMDKSSRTRLALIICNEEFDSIPRRTGAEVDITGMTMLLQNLGYSVDVKKNLTASDMTTELEAFAHRPEHKTSDSTFLVFMSHGIREGICGKKHSEQVPDILQLNAIFNMLNTKNCPSLKDKPKVIIIQACRGDSPGVVWFKDSVGVSGNLSLPTTEEFEDDAIKKAHIEKDFIAFCSSTPDNVSWRHPTMGSVFIGRLIEHMQEYACSCDVEEIFRKVRFSFEQPDGRAQMPTTERVTLTRCFYLFPGH
notes: as for B1
As to B4, the binding result is given as “no binding”.

B5: IKKα (enzyme, UniProt O15111 1-745, looked up)
chain: MERPPGLRPGAGGPWEMRERLGTGGFGNVCLYQHRELDLKIAIKSCRLELSTKNRERWCHEIQIMKKLNHANVVKACDVPEELNILIHDVPLLAMEYCSGGDLRKLLNKPENCCGLKESQILSLLSDIGSGIRYLHENKIIHRDLKPENIVLQDVGGKIIHKIIDLGYAKDVDQGSLCTSFVGTLQYLAPELFENKPYTATVDYWSFGTMVFECIAGYRPFLHHLQPFTWHEKIKKKDPKCIFACEEMSGEVRFSSHLPQPNSLCSLVVEPMENWLQLMLNWDPQQRGGPVDLTLKQPRCFVLMDHILNLKIVHILNMTSAKIISFLLPPDESLHSLQSRIERETGINTGSQELLSETGISLDPRKPASQCVLDGVRGCDSYMVYLFDKSKTVYEGPFASRSLSDCVNYIVQDSKIQLPIIQLRKVWAEAVHYVSGLKEDYSRLFQGQRAAMLSLLRYNANLTKMKNTLISASQQLKAKLEFFHKSIQLDLERYSEQMTYGISSEKMLKAWKEMEEKAIHYAEVGVIGYLEDQIMSLHAEIMELQKSPYGRRQGDLMESLEQRAIDLYKQLKHRPSDHSYSDSTEMVKIIVHTVQSQDRVLKELFGHLSKLLGCKQKIIDLLPKVEVALSNIKEADNTVMFMQGKRQKEIWHLLKIACTQSSARSLVGSSLEGAVTPQTSAWLPPTSAEHDHSLSCVVTPQDGETSAQMIEENLNCLGHLSTIIHEANEEQGNSMMNLDWSWLTE
notes: Construct and tag not described for this test
Take B5: the binding result was “no binding”.

B6: TRADD (other, UniProt Q15628 1-312, looked up)
chain: MAAGQNGHEEWVGSAYLFVESSLDKVVLSDAYAHPQQKVAVYRALQAALAESGGSPDVLQMLKIHRSDPQLIVQLRFCGRQPCGRFLRAYREGALRAALQRSLAAALAQHSVPLQLELRAGAERLDALLADEERCLSCILAQQPDRLRDEELAELEDALRNLKCGSGARGGDGEVASAPLQPPVPSLSEVKPPPPPPPAQTFLFQGQPVVNRPLSLKDQQTFARSVGLKWRKVGRSLQRGCRALRDPALDSLAYEYEREGLYEQAFQLLRRFVQAEGRRATLQRLVEALEENELTSLAEDLLGLTDPNGGLA
notes: as for B1
For the molecule B6, the binding result is listed as “no binding”.

B7: TRAF-1 (other, UniProt Q13077 1-416, looked up)
chain: MASSSGSSPRPAPDENEFPFGCPPTVCQDPKEPRALCCAGCLSENPRNGEDQICPKCRGEDLQSISPGSRLRTQEKAHPEVAEAGIGCPFAGVGCSFKGSPQSVQEHEVTSQTSHLNLLLGFMKQWKARLGCGLESGPMALEQNLSDLQLQAAVEVAGDLEVDCYRAPCSESQEELALQHFMKEKLLAELEGKLRVFENIVAVLNKEVEASHLALATSIHQSQLDRERILSLEQRVVELQQTLAQKDQALGKLEQSLRLMEEASFDGTFLWKITNVTRRCHESACGRTVSLFSPAFYTAKYGYKLCLRLYLNGDGTGKRTHLSLFIVIMRGEYDALLPWPFRNKVTFMLLDQNNREHAIDAFRPDLSSASFQRPQSETNVASGCPLFFPLSKLQSPKHAYVKDDTMFLKCIVETST
notes: as for B1
In the case of B7, the binding result is “no binding”.

B8: caspase-4 (enzyme, UniProt P49662 1-377, looked up)
chain: MAEGNHRKKPLKVLESLGKDFLTGVLDNLVEQNVLNWKEEEKKKYYDAKTEDKVRVMADSMQEKQRMAGQMLLQTFFNIDQISPNKKAHPNMEAGPPESGESTDALKLCPHEEFLRLCKERAEEIYPIKERNNRTRLALIICNTEFDHLPPRNGADFDITGMKELLEGLDYSVDVEENLTARDMESALRAFATRPEHKSSDSTFLVLMSHGILEGICGTVHDEKKPDVLLYDTIFQIFNNRNCLSLKDKPKVIIVQACRGANRGELWVRDSPASLEVASSQSSENLEEDAVYKTHVEKDFIAFCSSTPHNVSWRDSTMGSIFITQLITCFQKYSWCCHLEEVFRKVQQSFETPRAKAQMPTIERLSMTRYFYLFPGN
notes: as for B1
As to B8, the binding result is “no binding”.

B9: TRAF-2 (other, UniProt Q12933 1-501, looked up)
chain: MAAASVTPPGSLELLQPGFSKTLLGTKLEAKYLCSACRNVLRRPFQAQCGHRYCSFCLASILSSGPQNCAACVHEGIYEEGISILESSSAFPDNAARREVESLPAVCPSDGCTWKGTLKEYESCHEGRCPLMLTECPACKGLVRLGEKERHLEHECPERSLSCRHCRAPCCGADVKAHHEVCPKFPLTCDGCGKKKIPREKFQDHVKTCGKCRVPCRFHAIGCLETVEGEKQQEHEVQWLREHLAMLLSSVLEAKPLLGDQSHAGSELLQRCESLEKKTATFENIVCVLNREVERVAMTAEACSRQHRLDQDKIEALSSKVQQLERSIGLKDLAMADLEQKVLEMEASTYDGVFIWKISDFARKRQEAVAGRIPAIFSPAFYTSRYGYKMCLRIYLNGDGTGRGTHLSLFFVVMKGPNDALLRWPFNQKVTLMLLDQNNREHVIDAFRPDVTSSSFQRPVNDMNIASGCPLFCPVSKMEAKNSYVRDDAIFIKAIVDLTGL
notes: as for B1
Turning to B9, the binding result is given as “no binding”.

B10: procaspase-9 (enzyme, UniProt P55211 1-416, looked up)
chain: MDEADRRLLRRCRLRLVEELQVDQLWDALLSRELFRPHMIEDIQRAGSGSRRDQARQLIIDLETRGSQALPLFISCLEDTGQDMLASFLRTNRQAAKLSKPTLENLTPVVLRPEIRKPEVLRPETPRPVDIGSGGFGDVGALESLRGNADLAYILSMEPCGHCLIINNVNFCRESGLRTRTGSNIDCEKLRRRFSSLHFMVEVKGDLTAKKMVLALLELAQQDHGALDCCVVVILSHGCQASHLQFPGAVYGTDGCPVSVEKIVNIFNGTSCPSLGGKPKLFFIQACGGEQKDHGFEVASTSPEDESPGSNPEPDATPFQEGLRTFDQLDAISSLPTPSDIFVSYSTFPGFVSWRDPKSGSWYVETLDDIFEQWAHSEDLQSLLLRVANAVSVKGIYKQMPGCFNFLRKKLFFKTS
notes: as for B1
In the case of B10, the binding result was “no binding”.

B11: IKKβ (enzyme, UniProt O14920 1-756, looked up)
chain: MSWSPSLTTQTCGAWEMKERLGTGGFGNVIRWHNQETGEQIAIKQCRQELSPRNRERWCLEIQIMRRLTHPNVVAARDVPEGMQNLAPNDLPLLAMEYCQGGDLRKYLNQFENCCGLREGAILTLLSDIASALRYLHENRIIHRDLKPENIVLQQGEQRLIHKIIDLGYAKELDQGSLCTSFVGTLQYLAPELLEQQKYTVTVDYWSFGTLAFECITGFRPFLPNWQPVQWHSKVRQKSEVDIVVSEDLNGTVKFSSSLPYPNNLNSVLAERLEKWLQLMLMWHPRQRGTDPTYGPNGCFKALDDILNLKLVHILNMVTGTIHTYPVTEDESLQSLKARIQQDTGIPEEDQELLQEAGLALIPDKPATQCISDGKLNEGHTLDMDLVFLFDNSKITYETQISPRPQPESVSCILQEPKRNLAFFQLRKVWGQVWHSIQTLKEDCNRLQQGQRAAMMNLLRNNSCLSKMKNSMASMSQQLKAKLDFFKTSIQIDLEKYSEQTEFGITSDKLLLAWREMEQAVELCGRENEVKLLVERMMALQTDIVDLQRSPMGRKQGGTLDDLEEQARELYRRLREKPRDQRTEGDSQEMVRLLLQAIQSFEKKVRVIYTQLSKTVVCKQKALELLPKVEEVVSLMNEDEKTVVRLQEKRQKELWNLLKIACSKVRGPVSGSPDSMNASRLSQPGQLMSQPSTASNSLPEPAKKSEELVAEAHNLCTLLENAIQDTVREQDQSFTALDWSWLQTEEEEHSCLEQAS
notes: as for B5
For B11, the binding result is “no binding”.

The record behind these values is patent US20020197616A1 (REGENTS OF THE UNIVERSITY OF MICHIGAN, published 2002).
